± gives the uncertainty stated by the source.

This note sets out measurements from the supplement of paper PMC12042874.

The nature of this data set: amyloid nucleation score (Sup35N fusion, yeast selection) (log enrichment); library NNK3; higher = more nucleation; inactive = no reads after selection. The essentials:
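Using DiMSum, nucleation scores were taken as the log enrichment of output over input reads, centred on the mode score of non-aggregating sequences. The input and output reads came from Illumina sequencing of plasmid inserts, with sequences under 100 input reads excluded. The yeast were psi-negative, expressed Sup35N fused to peptides of 20 random codons, were induced with 100 μM copper sulfate for 24 hours, and were grown 7 days at 30°C on medium lacking adenine and uracil.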

For the substance IVLWVFVLTITLN, the amyloid nucleation score result is “inactive”.

In the case of IMSPTFGFQMLWPGPRHRLL, the amyloid nucleation score entry is “inactive”.

As for WMMRD, the amyloid nucleation score result was “inactive”.

The substance HIFFFSPKSVVHVIASRGCL yielded an amyloid nucleation score of 1.59 ± 0.081.

In turn, TRVHWHR gave an amyloid nucleation score of 1.63 ± 0.1.

On to CSMFVAIIPRWSFEWPLRW, for which the amyloid nucleation score result was “inactive”.

For the substance WCLHNLVSMLRDQTSRVSFP, the amyloid nucleation score result is “inactive”.

For HMCCKYVPRNKSGSLVFKRG, the amyloid nucleation score entry was “inactive”.

For MVWWNPNSWNVMLSLIWCLV, the amyloid nucleation score is 0.752 ± 0.14.

Consider LFYFVWRVYKFILWSG, for which the amyloid nucleation score result is “inactive”.

As for GSSISRRDFNVAILFWWQGD, the amyloid nucleation score entry is “inactive”.

For SSQDVTALLSRLN, the amyloid nucleation score entry is “inactive”.

For the substance VEGCKEGVRVYHLTFESFVI, the amyloid nucleation score result was “inactive”.

For the substance NENYVIAGC, the amyloid nucleation score entry was “inactive”.

For RRHKLW, the amyloid nucleation score entry was “inactive”.

CISLSRL: the amyloid nucleation score result is “inactive”.

For the substance RFVYRVNNRSKVLSEARMCI, the amyloid nucleation score result was “inactive”.

As to IMYFMLMLGSSRMSFTKLMG, the amyloid nucleation score result is “inactive”.

Regarding GLCRNCF, the amyloid nucleation score entry was “inactive”.

With RMNYNAYRIFLTPISDWCNL, the amyloid nucleation score entry is “inactive”.

SHVSQMWSGYAGNKEEPTAW gave an amyloid nucleation score of 0.928 ± 0.19.

For WLFSTSI, the amyloid nucleation score result was “inactive”.

Consider CMNWCVSRMVNTIVIWCMAY, for which the amyloid nucleation score result was “inactive”.

Consider DYQTHLCSEGLALLMRKGSR, for which the amyloid nucleation score result was “inactive”.

As for PRNFFLRVMHY, the amyloid nucleation score entry was “inactive”.

In the case of YSESIFIV, the amyloid nucleation score result is “inactive”.

As for LNGASADRRDWAEWLKADHC, the amyloid nucleation score result is “inactive”.

Regarding CVSNISSFGKLEFTYVIEVW, the amyloid nucleation score result was “inactive”.

In the case of GHMWFFVFY, the amyloid nucleation score is 2.52 ± 0.061.

On to DGPTRLNLFNSLFVSLKRMY, for which the amyloid nucleation score was 1.58 ± 0.12.

Consider RVLYGTICIFVGYFLVMSCV, for which the amyloid nucleation score was -0.21 ± 0.57.

YMYFKVDVDWRSPGMTARLL: the amyloid nucleation score entry is “inactive”.

Regarding KVCFCSLL, the amyloid nucleation score was 2.94 ± 0.075.

In the case of LYSKCFGVRLHYVFSMSWSG, the amyloid nucleation score result is “inactive”.

Turning to LQFPPNLSMLCKVTQPSNNW, the amyloid nucleation score result is “inactive”.

FKVAH: the amyloid nucleation score result was “inactive”.

For the substance VWKIHYCFDVFIMV, the amyloid nucleation score entry is “inactive”.

For VWTLAAVYYIIVRYSHKIRK, the amyloid nucleation score result was “inactive”.

GCFYCQALNLHPLTSVHAD: the amyloid nucleation score result is “inactive”.

Take RIVSRWCDNLNHTDCECCVC: the amyloid nucleation score result is “inactive”.

As to LNMHFENTIRGVPYTLVSGR, the amyloid nucleation score result was “inactive”.

As to SRTLIIIVYFTTNIIVLEFY, the amyloid nucleation score result is “inactive”.

For the substance IEVYAGTF, the amyloid nucleation score result was “inactive”.

For NRIVQAFPSIGGFATNVCLC, the amyloid nucleation score entry is “inactive”.

For the substance AWKLKFFVFNSLSVIT, the amyloid nucleation score entry is “inactive”.

In the case of KSREWLLSYFCYGW, the amyloid nucleation score result is “inactive”.

Substance YHLDIKNFHTLCWGPYFTSM had an amyloid nucleation score of 0.789 ± 0.25.

In turn, DSRAGRGMSFLRFNRRSVDE showed an amyloid nucleation score of 0.209 ± 0.38.

Consider SFERGMSENLFIVGPGEFVG, for which the amyloid nucleation score entry is “inactive”.

As for QYFRLLTLISRPFKTHRGVG, the amyloid nucleation score entry is “inactive”.

SIGCSSGFGRCLDLG: the amyloid nucleation score entry was “inactive”.

As for MCLYQGESRYGSYLYFTDIN, the amyloid nucleation score entry is “inactive”.

On to VTILYASASMESLSLGLCGT, for which the amyloid nucleation score entry was “inactive”.

On to RIHVSKLLTWTGSSLVVWSA, for which the amyloid nucleation score entry is “inactive”.

As for NLIVKSNYGAGNDMRCGDYT, the amyloid nucleation score result is “inactive”.

With NLRHCGCSALGTMTDVNVRG, the amyloid nucleation score stood at 0.692 ± 0.2.

Regarding RRARFFVHAQVRWVCFWAMK, the amyloid nucleation score result was “inactive”.

In the case of QITRLPSNYVYETWSEKVFY, the amyloid nucleation score entry was “inactive”.

RRAYVKQGVEFRIWNCYYWL: the amyloid nucleation score came out at 0.667 ± 0.16.

Regarding KTFMSCFGMGKEEGLSHFPR, the amyloid nucleation score result was “inactive”.

As to IVMKALNAFWTRTMLMFHHM, the amyloid nucleation score result was “inactive”.

Take GSGVRGQRMSGKCR: the amyloid nucleation score came to 0.164 ± 0.42.

For the substance HKMRRSLQFNEMGLFSPKVY, the amyloid nucleation score result was “inactive”.

As for HYLLACSYDRFFSRSSAYSL, the amyloid nucleation score result was “inactive”.

In the case of RLKLMRP, the amyloid nucleation score entry is “inactive”.

For the substance REFKY, the amyloid nucleation score result is “inactive”.

With CSRYFRWYHVLAYCSVPNRM, the amyloid nucleation score entry is “inactive”.

As to VGQCFNELVRFNRSGISRLV, the amyloid nucleation score entry was “inactive”.

As for RYRLKM, the amyloid nucleation score result is “inactive”.

In the case of HLCAVHKQFFYGSTGGVYTR, the amyloid nucleation score entry is “inactive”.

VFVDLPRARG displayed an amyloid nucleation score of 0.499 ± 0.32.

Turning to CGSRLYRCETAMMVLRIRSG, the amyloid nucleation score result is “inactive”.

Take DIFGSGYGYRGLSGRNYINM: the amyloid nucleation score entry is “inactive”.

As to VESLSVSAAL, the amyloid nucleation score result was “inactive”.

LLVLPGGVSGVNLRDEWTDF: the amyloid nucleation score result is “inactive”.

Regarding YFFKTQISSDGTLSTYECME, the amyloid nucleation score entry is “inactive”.

On to NKVYLGLTKLHSSDPSEMAC, for which the amyloid nucleation score was 2.18 ± 0.067.

With TKNDRN, the amyloid nucleation score entry is “inactive”.

Turning to WWVRQNVRWVLACVDFSTFS, the amyloid nucleation score entry was “inactive”.

Regarding VCLLIRPID, the amyloid nucleation score entry was “inactive”.

In the case of IGLSSHISWYE, the amyloid nucleation score entry is “inactive”.

Take KYWSLGNGCTTKRWSGGFVS: the amyloid nucleation score result was “inactive”.

Consider CGQFVEISKYG, for which the amyloid nucleation score result is “inactive”.

For the substance TLLTMTDFAIKFSHKQPGYV, the amyloid nucleation score result is “inactive”.

With DDRDSNSVTLDNSWSYSITV, the amyloid nucleation score entry was “inactive”.

As to YEMIKFSKY, the amyloid nucleation score entry is “inactive”.

VKNIWIDVTMGDQLFIPNFY displayed an amyloid nucleation score of 2.36 ± 0.051.

For the substance PCRICINCCRRCIILLLF, the amyloid nucleation score entry is “inactive”.

In the case of TPVMRSVNMMVLKTI, the amyloid nucleation score result is “inactive”.

GVLCMWHLCFDVCDGKIIGG gave an amyloid nucleation score of 1.74 ± 0.078.

Substance CVATNYSYCSIFLHRA registered an amyloid nucleation score of 2.01 ± 0.079.

Consider SYQWWLCFFSLFFIGGDFRT, for which the amyloid nucleation score result was “inactive”.

Turning to MTWNTGLYSRGRHGFYGFST, the amyloid nucleation score amounted to 1.26 ± 0.15.

As for AVWYRNI, the amyloid nucleation score turned out to be 2.06 ± 0.057.

In the case of CLIYTTVFHSAG, the amyloid nucleation score was 0.708 ± 0.13.

Turning to VFWYKYVFSCNIIQGLLRMK, the amyloid nucleation score entry is “inactive”.

With MHSISV, the amyloid nucleation score result was “inactive”.

On to VFCKNLNYALRMPSKWGLYT, for which the amyloid nucleation score entry was “inactive”.

In the case of VYCPELLSRCGQVGSTCCDR, the amyloid nucleation score result is “inactive”.

MSSRPGFNT: the amyloid nucleation score entry is “inactive”.

Consider MRRCDVWKIYGYMLSPPLPR, for which the amyloid nucleation score entry is “inactive”.

Take RYTFVGT: the amyloid nucleation score is -0.408 ± 0.68.

As to DVLWSGSYSSRLPGSIRDCE, the amyloid nucleation score result was “inactive”.

Regarding TMCKRLVVTYQLAYWRVSV, the amyloid nucleation score result was “inactive”.

Regarding TDVLELVSTHCRYGFSVPQP, the amyloid nucleation score entry was “inactive”.

Take VSLKYSTKKPWLKTDHPCWI: the amyloid nucleation score entry was “inactive”.

For DIPSVGQKRCSHGDRYNSAK, the amyloid nucleation score entry is “inactive”.

For the substance AIKVGASIINFLWLAHVWCP, the amyloid nucleation score result was “inactive”.

As for QDFRLLSALRF, the amyloid nucleation score entry was “inactive”.

Take ELIDKLVT: the amyloid nucleation score result was “inactive”.

SGASYVQS: the amyloid nucleation score result was “inactive”.

On to RPEAAYSVKYLVLV, for which the amyloid nucleation score entry is “inactive”.

For the substance RVLYPVKVYRNDKMADWNN, the amyloid nucleation score result was “inactive”.

For LTSMNSGLSYLKLFASQNLR, the amyloid nucleation score entry was “inactive”.

With NEGSNATC, the amyloid nucleation score worked out at 0.713 ± 0.13.

Regarding ACTIMWSSLKSIT, the amyloid nucleation score entry is “inactive”.

For the substance WQTKIGYSGRLFDRTLGDAK, the amyloid nucleation score result was “inactive”.

For LVILMSSHIEFLGTYFNEKL, the amyloid nucleation score result was “inactive”.

With QYANVGSCVCDRIIRCFYGW, the amyloid nucleation score entry is “inactive”.

As for FCHVRMLAISTIYGSSVEVF, the amyloid nucleation score result is “inactive”.

RRCPYIRESIYKFSLAKCSF: the amyloid nucleation score was determined as 0.014 ± 0.31.

Consider CSFRIMGDQMIGKTCCRFGH, for which the amyloid nucleation score entry was “inactive”.

Regarding NLVLCN, the amyloid nucleation score entry is “inactive”.

Regarding IVVCFRSRRFCSSRYHS, the amyloid nucleation score entry is “inactive”.

For the substance PRLAIKAHGVWVGKSFIGET, the amyloid nucleation score entry is “inactive”.

Regarding SGGTEKRSKRAGLLLFRTEE, the amyloid nucleation score entry is “inactive”.

In turn, TRLLWSAEFGEGNDMTSLKF gave an amyloid nucleation score of 0.073 ± 0.87.

The substance NLFFSVSMSAEFEW showed an amyloid nucleation score of 0.078 ± 0.37.

Consider EFRIKRNR, for which the amyloid nucleation score entry was “inactive”.

With VIIYI, the amyloid nucleation score result was “inactive”.

As to TATLAC, the amyloid nucleation score entry is “inactive”.

As to RPYHSEKYDKFVDAMSFWCW, the amyloid nucleation score result is “inactive”.
